The chains are these.
B1: cynomolgus CD3ε-Fc (Fc fusion, UniProt Q95LI5 22-117, looked up)
chain: QDGNEEMGSITQTPYQVSISGTTVILTCSQHLGSEAQWQHNGKNKEDSGDRLFLPEFSEMEQSGYYVCYPRGSNPEDASHHLYLKARVCENCMEMD
notes: loaded on streptavidin tips; not shown: Fc part
B2: cynomolgus serum albumin (other, UniProt A2V9Z4 25-608, looked up)
chain: DTHKSEVAHRFKDLGEEHFKGLVLVAFSQYLQQCPFEEHVKLVNEVTEFAKTCVADESAENCDKSLHTLFGDKLCTVATLRETYGEMADCCAKQEPERNECFLQHKDDNPNLPPLVRPEVDVMCTAFHDNEATFLKKYLYEVARRHPYFYAPELLFFAARYKAAFAECCQAADKAACLLPKLDELRDEGKASSAKQRLKCASLQKFGDRAFKAWAVARLSQKFPKAEFAEVSKLVTDLTKVHTECCHGDLLECADDRADLAKYMCENQDSISSKLKECCDKPLLEKSHCLAEVENDEMPADLPSLAADYVESKDVCKNYAEAKDVFLGMFLYEYARRHPDYSVMLLLRLAKAYEATLEKCCAAADPHECYAKVFDEFQPLVEEPQNLVKQNCELFEQLGEYKFQNALLVRYTKKVPQVSTPTLVEVSRNLGKVGAKCCKLPEAKRMPCAEDYLSVVLNRLCVLHEKTPVSEKVTKCCTESLVNRRPCFSALELDEAYVPKAFNAETFTFHADMCTLSEKEKQVKKQTALVELVKHKPKATKEQLKGVMDNFAAFVEKCCKADDKEACFAEEGPKFVAASQAALA
notes: loaded on streptavidin tips
B3: human CD3ε-Fc (Fc fusion, UniProt P07766 23-126, looked up)
chain: DGNEEMGGITQTPYKVSISGTTVILTCPQYPGSEILWQHNDKNIGGDEDDKNIGSDEDHLSLKEFSELEQSGYYVCYPRGSKPEDANFYLYLRARVCENCMEMD
notes: as for B1
B4: human BCMA on BCMA-expressing cell lines (receptor)
chain: MLQMAGQCSQNEYFDSLLHACIPCQLRCSSNTPPLTCQRYCNASVTNSVKGTNAILWTCLGLSLIISLAVFVLMFLLRKINSEPLKDEFKNTGSGLLGMANIDLEKSRTGDEIILPRGLEYTVEECTCEDCIKSKPKVDSDHCFPLPAMEEGATILVTTKTNDYCKSLPAALSATEIEKSISAR
notes: BCMA as expressed by human tumour cell lines; also called BCMA expressing cells (EJM, Jeko1, MOLP-8, OPM-2, NCI-H929, RPMI-8226)
B5: 253BH10 trispecific protein (other, not shown: large carriers)
chain: QVQLVESGGGLVQPGESLRLSCAASTNIFSISPMGWYRQAPGKQRELVAAIHGFSTLYADSVKGRFTISRDNAKNTIYLQMNSLKPEDTAVYYCNKVPWGDYHPRNVYWGQGTQVTVSS
notes: also called molecule with the parental CDRs

For experiment [1], the target named is T1, 02B05 TriTAC.
T1 construct: TriTAC trispecific; His6 in entry; also called exemplary BCMA targeting trispecific protein (02B05)
Description: Octet; 2.5 nM cynomolgus CD3ε-Fc on streptavidin tips; 15 mg/ml HSA; n=2. The procedure:
(§1) The affinities were measured using an Octet instrument. For these measurements, streptavidin tips were first loaded with 2.5 nM human BCMA-Fc, 2.5 nM cynomolgous BCMA-Fc, 2.5 nM human CD3ε-Fc, 2.5 nM cynomolgus CD3ε-Fc, 50 nM human serum albumin (HSA), 50 nM cynomolgus serum albumin, or 50 nM mouse serum albumin. […] Average calculated KD values from these studies are provided in Table 4 (n indicates the number of independent measurements, n/d indicates no binding detected under the conditions tested).
On the technique in general: Biolayer interferometry detects binding as a change in optical thickness at a sensor tip.

Experiment [2] concerns the target T1, 02B05 TriTAC. Put plainly: Octet; 50 nM cynomolgus serum albumin on streptavidin tips; n=1. Here is the method: as §1
Experiment [3] concerns the target T1, 02B05 TriTAC. Put plainly: Octet; 2.5 nM human CD3ε-Fc on streptavidin tips; 15 mg/ml HSA; n=2. Here is the method:
as §1

Experiment [4] concerns the target T1, 02B05 TriTAC. Description: flow cytometry on NCI-H929 cells (BCMA RNA FPKM 1931); bound protein detected with an Alexa Fluor 647 antibody against the anti-albumin domain; negative control: GFP trispecific protein. (In general: Flow cytometry measures light scatter and fluorescence of single cells or particles in a stream.)
The target of experiment [5] is B4. Description: cell-based or functional assay.
The target in experiment [6] is T2, human BCMA protein (human, UniProt Q02223 1-54, limits assumed).
T2 sequence: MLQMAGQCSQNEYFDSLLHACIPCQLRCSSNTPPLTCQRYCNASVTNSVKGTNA
Description: affinity to human BCMA protein; method not stated.

T1 sequence (chain, as listed by the source): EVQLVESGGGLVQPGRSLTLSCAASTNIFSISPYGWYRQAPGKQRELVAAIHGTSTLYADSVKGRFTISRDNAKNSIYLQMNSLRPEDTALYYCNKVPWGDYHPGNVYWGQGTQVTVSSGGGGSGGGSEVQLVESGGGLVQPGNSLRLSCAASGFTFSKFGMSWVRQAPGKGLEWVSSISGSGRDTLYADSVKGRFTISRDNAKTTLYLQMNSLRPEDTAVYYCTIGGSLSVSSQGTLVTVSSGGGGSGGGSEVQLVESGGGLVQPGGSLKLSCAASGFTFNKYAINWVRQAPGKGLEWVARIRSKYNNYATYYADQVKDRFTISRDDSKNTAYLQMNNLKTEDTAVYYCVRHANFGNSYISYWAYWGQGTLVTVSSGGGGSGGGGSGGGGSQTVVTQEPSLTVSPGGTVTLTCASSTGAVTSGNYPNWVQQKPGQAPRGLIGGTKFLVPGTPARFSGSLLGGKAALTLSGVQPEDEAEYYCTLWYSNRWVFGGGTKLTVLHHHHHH

By Kd is commonly meant the constant that tells how readily two partners part at equilibrium. For B1, in experiment [1], binding was characterised by a dissociation constant (Kd) of 7.8 nM. B2 gave a Kd in experiment [2] of 7.5 nM. The molecule B3 had a Kd in experiment [3] of 8 nM. In the case of B4, in experiment [4], the binding result is on record as “binds”. For B5, in experiment [5], the “TDCC EC50, EJM cells” value is 0.0529 nM. In experiment [6], binding was put at a Kd of 27.7 nM.

The values above are taken from US20260109773A1 (HARPOON THERAPEUTICS, published 2026).
